# Assay results published in PMC5452030.
# Like-named read-outs stand apart in the source and are kept apart here.
# Assays:
# Experiment in all cases: SPR
# [1] = target: human ApoER2 ECD-BAS D68N (LA1 mutant) (human)
# [2] = target: human ApoER2 ECD-BAS E107Q (LA2 mutant) (human)
# [3] = target: human ApoER2 ECD-BAS H96A/H99A (LA2 mutant) (human)
# [4] = target: human ApoER2 ECD-BAS H96K/H99K (LA2 mutant) (human)
# [5] = target: human ApoER2 ECD-BAS H96K/H99K (LA2 mutant) (human); remark: listed apart in the source
binder,measurement,setting,value
"mouse reelin R56 fragment (fifth and sixth reelin repeats), wild type, for SPR (domain or fragment) DGNNLNNPVLLLDTFDFGPREDNWFFYPGGNIGLYCPYSSKGAPEEDSAMVFVSNEVGEHSITTRDLSVNENTIIQFEINVGCSTDSSSADPVRLEFSRDFGATWHLLLPLCYHSSSLVSSLCSTEHHPSSTYYAGTTQGWRREVVHFGKLHLCGSVRFRWYQGFYPAGSQPVTWAIDNVYIGPQCEEMCYGHGSCINGTKCICDPGYSGPTCKISTKNPDFLKDDFEGQLESDRFLLMSGGKPSRKCGILSSGNNLFFNEDGLRMLVTRDLDLSHARFVQFFMRLGCGKGVPDPRSQPVLLQYSLNGGLSWSLLQEFLFSNSSNVGRYIALEMPLKARSGSTRLRWWQPSENGHFYSPWVIDQILIGGNISGNTVLEDDFSTLDSRKWLLHPGGTKMPVCGSTGDALVFIEKASTRYVVTTDIAVNEDSFLQIDFAASCSVTDSCYAIELEYSVDLGLSWHPLVRDCLPTNVECSRYHLQRILVSDTFNKWTRITLPLPSYTRSQATRFRWHQPAPFDKQQTWAIDNVYIGDGCLDMCSGHGRCVQGSCVCDEQWGGLYCDEPETSLPTQLKDNFNRAPSNQNWLTVSGGKLSTVCGAVASGLALHFSGGCSRLLVTVDLNLTNAEFIQFYFMYGCLITPSNRNQGVLLEYSVNGGITWNLLMEIFYDQYSKPGFVNILLPPDAKEIATRFRWWQPRHDGLDQNDWAIDNVLIS",Kd,[1],> 2800 nM
same,Kd,[2],38 nM
same,Kd,[3],120 nM
same,Kd,[4],490 nM
same,Kd,[5],45 nM
